From the RNAGym collection of RNA variant scans (doi:10.1073/pnas.2313332121)

B1: TPR t1 (parent)
chain: GACCAAUCUGCCCUCAGAGCUCGAGAACAUCUUCGGAUGCAGAGGAGGCAGGCUUCGGUGGCGCGAUAGCGCCAACGUCCUCAACCUCCAAUGCAUCCCACCACAUGAUGAUGCCUGAAGAGCCUUGGUUUUUUG

Variants of: B1
Assay: polymerase ribozyme fitness, log enrichment relative to wild type (log ratio); higher = more active; in vitro selection for triplet polymerase activity
How it was run: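 For each subunit of a heterodimeric triplet polymerase ribozyme, a mutant library was built by PCR and transcribed, then taken through a single in vitro selection round in triplicate. Selection involved annealing to a biotinylated primer, the partner subunit and triplets, incubation frozen at −7 °C, gel excision of extended constructs, capture on streptavidin beads and RT-PCR. Genotypes were retained after Illumina sequencing of inputs and outputs only with ≥10 input reads and ≥1 read in each output. Fitness is defined as the logarithm of a genotype's enrichment relative to wild-type enrichment, using inverse-variance-weighted averages across replicates, with the logarithm taken to base 2.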

Variant | polymerase ribozyme fitness (log ratio)
GACCAAUCUGCACUCAGAGCUGGAGAUCAUCUUCGGAUGCAGAGGAGGCAGGCUUCGGUGGCGCGAUAGCGCCAACGUCCUCAACCUCCAAUGCAUCCCACCACAUGAUGAUGCCUGAAGAGCCUUGGUUUUUUG [C12A C22G A27U] | -4.16
GACUAAUGUGCCCUCAGAGCUCGAGAACAUCUUGGGAUGCAGAGGUGGCAGGCUUCGGGGGUGCGAUAGCGCCAACGUCCUCAACCUCCAAUGCAUCCCACUACAUGAUGAUUCCUGAAGCGCCUUGGUUGUUUG [C4U C8G C34G A46U U59G C62U C102U G113U A121C U131G] | -6.55
GACCAAUCUCCCCUCAGCGUUCGAGAACAUCUUCGGAUGCAGAGGAGGCAGGCUUUGGUGGCGCGAUAGCGCCAACGUCCUCAACCUCCAAUGCAUCCCACCACAUGAUGAUGCCUGAAGAGCCUUGGUUUUUUG [G10C A18C C20U C56U] | -3.11
GACCAAUCUGCCCUCAGAGCUCGAGAACAUCUUCGGAUGCAGAGGCGGCAGGCUUCGGUGGCGCGAUAGCGCGAACGUCCUCAACCCCCAAUGCAUCCCACCACAUGAUGAUGCCUGAAGAGCCUUGGUUUUUUG [A46C C73G U87C] | -1.35
GACCAAUCUGCCCUCAGAGCUCGAGAACAUCUUCGGAUGGAGGGGAGGCAGGCAUCGGUGGCGCGAUAGCGCCAACGUCCUCAACCUCCAAUGCAUCCCACCACAUGAUGAUGCCUGAAGAGCCUUGGUUUUUUG [C40G A43G U54A] | -4.85
GACCAAUCUGCCCUCAGAGCUCGAGAACAUCUUCGGAUGCAGAGGAGGAAGGCUUCGGUGGCGCGAUAGCGCCAACGUCCUCAACCUCCAAUGCAUCCCACCACAUGAUGAUGCGUGAAGAGCCUUGGUUUUUUG [C49A C115G] | -1.85
GACCAAUCUGCCCUCAGAGCUCGAGAACAUCUUCGGAUGCAGAGGAGGUAGGCUUCGGUGGCGCGAUAGCGCCAACGUCCUCAACCUCCAAUGCAUCCCACCACAUGAUAAUGCCUGAAGAGCCUUGGUUUUUUG [C49U G110A] | -1.45
GACCAAUCUGCCCUCAGAGCUCGAGAACAUCUUCGGAUGCAGAGGAGGCAGGCUUCGGUGGCGCGAUAGCGCAAACGUCCUCAACCUCCAAUGCAUCCCACCACAUGAUGAUGCCUGAAGAGCCUUGGUUUAUUG [C73A U132A] | 0.117
GACCAAUAUGCCCUCAGAGCUCGAGAACAUAUUCGGAUGCAGAGGAGGCAGGCUUCGGUGGCGCGAUAGCGCCAACGUCCUCAACCUCCAAUGCAUCCCACCACAUGAUGAUGCCUGAAGAGCCUUGGUUUUUUG [C8A C31A] | -5.54
GACCAAUCUGCCCUCAGCGUUCGAGAACAUCUUCGUAUGCAGAGGAGGCAGGCUUGGGUGGCGCGAUAGCGCCAACGUCCUCAACCUCCAAUGCAUCCCACCACAUGAUGAUGCCUGAAGAGCCUUGGUUUUUUG [A18C C20U G36U C56G] | -3.57
GACCAAUCUGCCCUCAGAGGUCGAGAACAUCUUCGGAUGCAGAGGAGGCAGGCUUCGGUGGCGCGAUAGCGCAAACGUCCUCAACCUCCAAUGCAUCCCAUCACAUGAUGAUUCCUGAAGAGCCUUGGUUUUUUG [C20G C73A C101U G113U] | -0.556
GACCAAUCUGCCCUCAGAGCACGAGACCAUCUUCGGAUGCAGAGGGGGCAGGCUUCGGUGGCGCGAUAGCGCCAAGGUCCUCAACCUCCAAUGCAUCCCACCACAUGAUGAUGCCUGAAGAGCCUUGGUUUUUUG [U21A A27C A46G C76G] | -2.54
GACCAAUCUGCCCUCAGAGCUCGAGAACAUCUUCGGAUGCAGAGGAGGCAGGCUGCGGUGGCGCGAUAACGCCAACGUCCUCAACCUCCAAUGCAUCCCACCACAUGAUGACGCCUGAACAGCCUUGGUUUUUUG [U55G G69A U112C G120C] | -2.49
GACCAAUCUGCCCUCAGAGCUCGAGAACAUCUUCGGAUGCUGAGCAGGCAGGCUUCGGUGGCGCGAUAGCGCCAACGUCCUCAACCUCCAAUGCAUCCCACCACAUGAUGAUGCCUGAAGAGCCUUGGUUUUUUG [A41U G45C] | -2.41
GACCAAUCUGCCCUCAGAGCUCGAGAACAUCUUCGGAUGCAGAGGAGGCAGGCUUCGGUGUCGCGAUAGCGCCAACGUCCUCAACCUCCAAUGCAUCCCACCACAUGAUGAUGCCUCAAGAGCCUUGGUUUUUUG [G61U G117C] | -2.09
GACCAAUCUGCCCUCAGAGCUGGAGAACAUCUUCGGAUGCAGAGGAGGCAGGCUUCGGUGGCGCGAUAGCGCCAACGUCCUUAACCUCCAAUGCAUCCCACCACAUGAUGAUGCCUGAAGAGCCUUGGUUUUUUG [C22G C82U] | -3.57
GGCCAAUGUGCCCUCAGAGCUCGAGAACAUCUUCGGAUGCAGAGGAGGCAGGCUUCGGUGGCGCGAUAGCGCCAACGUCCUCAACCUCCAAUGCAUCCCACCACAUGAUGAUGCCUGAAGUGCCUUGGGUUUUUG [A2G C8G A121U U129G] | 0.138
GACCCAUCUGCCCUCAGAGCUCGAGAACAUCUUCGGAUGCAGAGGUGGCAGGCUUCGGUGGCGCGAUAGCGCCAACGUCCUCAACCUCCAAUGCAUCCCACCACAUGAUGAUGCCUGAAGAGCCUUGGUUUUUUG [A5C A46U] | -1.95
GACCAUUCUGCCCUCAGAGCUCGAGAACAUCUUGGGAUGCAGAGGAGGCAGGCUUCGGUGGCGCGAUAGCGCCAACGUCCUCAACCACCAAUGCAUCCCACCACAUGAUGAUGCCUGAAAAGCCUUGGUUUUUUG [A6U C34G U87A G120A] | -3.94
GACCAAUCUGCCCUCAGAGCACGAGAACAUCUUCGGAUGCAGAGGAGGCUGGCUUCGGUGGCGCGAUAGCGCUAAGGUCCUCAACCUCAAAUGCAUCCCACCACAUGAUGAUGCCUGAAGAGCCUUGGUUUUUUG [U21A A50U C73U C76G C89A] | -4.66
GACCAAUCUGCCCUCAGAGCUCGAGAACAUCUUCGGAUGCAGAGGAGGCAGGCUUCGGUGGUGCGAUAGCGCCAACGUCCUCAACCUCCAAUGCAUCCCACCACAUGAUGAUGCCUGAAUAGCCUUGGUUUUUUG [C62U G120U] | -0.189
